Results from PMC9352680, “A comprehensive thermodynamic model for RNA binding by the Saccharomyces cerevisiae Pumilio protein PUF4”.
Where a chain is given by its changes, count along the chain named. Names and notes keep the numbering of the source.

T1: PUF4 RNA-binding domain (Saccharomyces cerevisiae, UniProt P25339 537-888)
T1 sequence: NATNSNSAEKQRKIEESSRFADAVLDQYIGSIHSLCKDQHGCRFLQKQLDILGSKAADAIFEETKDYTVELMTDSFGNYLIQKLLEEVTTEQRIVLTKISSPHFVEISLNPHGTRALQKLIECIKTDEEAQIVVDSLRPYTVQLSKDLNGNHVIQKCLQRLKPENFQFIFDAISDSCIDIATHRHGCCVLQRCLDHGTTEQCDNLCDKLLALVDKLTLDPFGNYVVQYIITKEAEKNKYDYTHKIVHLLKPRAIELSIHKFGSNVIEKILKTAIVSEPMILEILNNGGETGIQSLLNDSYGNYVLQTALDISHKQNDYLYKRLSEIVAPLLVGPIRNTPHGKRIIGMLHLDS

B1: Id_ii_S4_P4E.2_K4.1_C4.2_[C-2A]_H4.1_A4.1_F4.1_T4.2_[G10A]_[T11A] (ssRNA)
RNA: UUUGACAACUGAUCGUUCUUUCUAUUGUAUAUUAAAUUCUUUCUCGAUCAGUUGUCUUU
B2: Id_ii_S4_P4E.2_K4.1_C4.2_[C-2A]_H4.1_A4.1_F4.1_T4.2_[G10T] (ssRNA)
RNA: B1 RNA with A35U, A36U
B3: Id_ii_S4_P4E.2_K4.1_C4.2_[T-1G]_H4.1_A4.1_F4.1_T4.2 (ssRNA)
RNA: B1 RNA with A24C, U25G, A35G, A36U
B4: Id_ii_S4_P4E.2_K4.1_C4.2_[C-2T]_[T-1A]_H4.1_A4.1_F4.1_T4.2 (ssRNA)
RNA: B1 RNA with A24U, U25A, A35G, A36U
B5: Id_ii_S4_P4E.2_K4.1_C4.2_[C-2A]_[T-1C]_H4.1_A4.1_F4.1_T4.2_[G10T]_[T11C] (ssRNA)
RNA: B1 RNA with U25C, A35U, A36C
B6: Id_ii_S4_P4E.2_K4.1_C4.2_[C-2G]_H4.1_A4.1_F4.1_T4.2_[G10T]_[T11A] (ssRNA)
RNA: B1 RNA with A24G, A35U
B7: Id_ii_S4_P4E.2_K4.1_C4.2_[C-2T]_H4.1_A4.1_F4.1_T4.2_[G10A]_[T11G] (ssRNA)
RNA: B1 RNA with A24U, A36G
B8: Id_ii_S4_P4E.2_K4.1_C4.2_[C-2A]_[T-1G]_H4.1_A4.1_F4.1_T4.2_[G10A]_[T11A] (ssRNA)
RNA: B1 RNA with U25G
B9: Id_ii_S4_P4E.2_K4.1_C4.2_[C-2A]_[T-1A]_H4.1_A4.1_F4.1_T4.2_[G10T] (ssRNA)
RNA: B1 RNA with U25A, A35U, A36U
B10: Id_ii_S4_P4E.2_K4.1_C4.2_[T-1C]_H4.1_A4.1_F4.1_T4.2_[G10A]_[T11A] (ssRNA)
RNA: B1 RNA with A24C, U25C
B11: Id_ii_S4_P4E.2_K4.1_C4.2_[T-1C]_H4.1_A4.1_F4.1_T4.2_[G10T]_[T11G] (ssRNA)
RNA: B1 RNA with A24C, U25C, A35U, A36G
B12: Id_ii_S4_P4E.2_K4.1_C4.2_[C-2T]_[T-1A]_H4.1_A4.1_F4.1_T4.2_[G10A]_[T11C] (ssRNA)
RNA: B1 RNA with A24U, U25A, A36C
B13: Id_ii_S4_P4E.2_K4.1_C4.2_[C-2A]_[T-1C]_H4.1_A4.1_F4.1_T4.2_[G10C] (ssRNA)
RNA: B1 RNA with U25C, A35C, A36U
B14: Id_ii_S4_P4E.2_K4.1_C4.2_[C-2T]_[T-1A]_H4.1_A4.1_F4.1_T4.2_[G10T]_[T11C] (ssRNA)
RNA: B1 RNA with A24U, U25A, A35U, A36C
B15: Id_ii_S4_P4E.2_K4.1_C4.2_[C-2T]_H4.1_A4.1_F4.1_T4.2_[T11C] (ssRNA)
RNA: B1 RNA with A24U, A35G, A36C
B16: Id_ii_S4_P4E.2_K4.1_C4.2_[C-2A]_[T-1C]_H4.1_A4.1_F4.1_T4.2_[G10T]_[T11A] (ssRNA)
RNA: B1 RNA with U25C, A35U
B17: Id_ii_S4_P4E.2_K4.1_C4.2_[C-2T]_[T-1C]_H4.1_A4.1_F4.1_T4.2_[G10T]_[T11C] (ssRNA)
RNA: B1 RNA with A24U, U25C, A35U, A36C
B18: Id_ii_S4_P4E.2_K4.1_C4.2_[T-1G]_H4.1_A4.1_F4.1_T4.2_[G10T] (ssRNA)
RNA: B1 RNA with A24C, U25G, A35U, A36U
B19: Id_ii_S4_P4E.2_K4.1_C4.2_[T-1G]_H4.1_A4.1_F4.1_T4.2_[G10A]_[T11G] (ssRNA)
RNA: B1 RNA with A24C, U25G, A36G
B20: Id_ii_S4_P4E.2_K4.1_C4.2_[C-2A]_[T-1G]_H4.1_A4.1_F4.1_T4.2_[G10T]_[T11C] (ssRNA)
RNA: B1 RNA with U25G, A35U, A36C
B21: Id_ii_S4_P4E.2_K4.1_C4.2_[C-2G]_[T-1C]_H4.1_A4.1_F4.1_T4.2_[G10T] (ssRNA)
RNA: B1 RNA with A24G, U25C, A35U, A36U
B22: Id_ii_S4_P4E.2_K4.1_C4.2_[C-2A]_[T-1A]_H4.1_A4.1_F4.1_T4.2_[G10A] (ssRNA)
RNA: B1 RNA with U25A, A36U
B23: Id_ii_S4_P4E.2_K4.1_C4.2_[C-2T]_[T-1A]_H4.1_A4.1_F4.1_T4.2_[T11C] (ssRNA)
RNA: B1 RNA with A24U, U25A, A35G, A36C
B24: Id_ii_S4_P4E.2_K4.1_C4.2_[C-2G]_H4.1_A4.1_F4.1_T4.2_[G10C]_[T11C] (ssRNA)
RNA: B1 RNA with A24G, A35C, A36C
B25: Id_ii_S4_P4E.2_K4.1_C4.2_[C-2T]_H4.1_A4.1_F4.1_T4.2 (ssRNA)
RNA: B1 RNA with A24U, A35G, A36U
B26: Id_ii_S4_P4E.2_K4.1_C4.2_[T-1C]_H4.1_A4.1_F4.1_T4.2_[G10T]_[T11C] (ssRNA)
RNA: B1 RNA with A24C, U25C, A35U, A36C
B27: Id_ii_S4_P4E.2_K4.1_C4.2_[C-2T]_H4.1_A4.1_F4.1_T4.2_[G10T]_[T11G] (ssRNA)
RNA: B1 RNA with A24U, A35U, A36G

Target: T1, PUF4 RNA-binding domain
Assay: Mg; RNA-MaP; 20 mM Na-HEPES pH 7.4, 30 mM KOAc, 0.75 mM MgCl2, 0.1% Tween-20, 5% glycerol, 0.1 mg/mL BSA, 2 mM DTT; 25 C; 0.0125-409.6 nM protein
Settings: tags: N-His6-TEV cleaved; C-SNAP kept, Cy3B-labelled; label: tethered on chip by stalled RNA polymerase

| Binder | Kd [nM] |
| --- | --- |
| B1 | 1.35 |
| B2 | 0.312 |
| B3 | 0.364 |
| B4 | 0.659 |
| B5 | 0.306 |
| B6 | 0.515 |
| B7 | 3.49 |
| B8 | 1.62 |
| B9 | 1.56 |
| B10 | 0.435 |
| B11 | 0.173 |
| B12 | 1.15 |
| B13 | 1.24 |
| B14 | 0.343 |
| B15 | 0.339 |
| B16 | 0.625 |
| B17 | 0.319 |
| B18 | 0.196 |
| B19 | 1.39 |
| B20 | 2.16 |
| B21 | 0.295 |
| B22 | 1.37 |
| B23 | 0.368 |
| B24 | 1.76 |
| B25 | 0.37 |
| B26 | 0.317 |
| B27 | 0.308 |
| UCUCUUUAUAUCAUUAUCUCUU (ssRNA) [Ib_S1_P5E.1_K5.1_C5.1_H5.1_[G2A]_A5.1_[T6C]_F5.1_T5.1] | 752 |
| UCUCUUUUUAUAAUUAUCUCUU (ssRNA) [Ib_S1_P5E.1_K5.1_C5.1_H5.1_[G2T]_A5.1_[T6A]_F5.1_T5.1] | > 2300 |
